The text below walks through data of US20190234935A1.

The assay deals with mouse GFRAL (endogenous, wild type mice against Gfral-/- mice) (mouse) (UniProt Q6SJE0). The assay can be described thus: cell-based or functional assay.
Chain of mouse GFRAL (endogenous, wild type mice against Gfral-/- mice) (mouse) (Q6SJE0 20-393): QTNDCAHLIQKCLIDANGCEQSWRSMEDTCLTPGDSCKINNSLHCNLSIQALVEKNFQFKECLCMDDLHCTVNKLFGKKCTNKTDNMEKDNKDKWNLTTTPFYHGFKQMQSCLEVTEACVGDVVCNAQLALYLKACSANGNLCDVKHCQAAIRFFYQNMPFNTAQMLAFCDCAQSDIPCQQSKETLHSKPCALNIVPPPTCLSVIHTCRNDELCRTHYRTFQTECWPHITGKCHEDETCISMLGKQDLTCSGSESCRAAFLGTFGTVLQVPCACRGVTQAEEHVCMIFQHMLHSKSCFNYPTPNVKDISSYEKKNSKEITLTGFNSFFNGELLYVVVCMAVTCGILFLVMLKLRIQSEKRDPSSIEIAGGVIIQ

In turn, “recombinant human GDF15 (generated by Janssen BioTherapeutics) (from UniProt Q99988 197-308) (ligand)” registered a decrease in 12-hour food intake after a single subcutaneous administration of 16 nmol/kg of more than 40%.
